The assay concerns the target hFc-hROR2-T245 (recombinant human ROR2 extracellular domain fused to human Fc) (human) (UniProt Q01974). Nature of the assay: SPR (Biacore X100), hFc-hROR2 captured by anti-human Fc on CM5, Fab as analyte, 1:1 Langmuir model. For orientation: In SPR one partner is held on a chip, and binding of the other changes the refractive index at the surface.

Sequence of hFc-hROR2-T245 (recombinant human ROR2 extracellular domain fused to human Fc) (human) (Q01974 55-394 limits assumed, form in doubt): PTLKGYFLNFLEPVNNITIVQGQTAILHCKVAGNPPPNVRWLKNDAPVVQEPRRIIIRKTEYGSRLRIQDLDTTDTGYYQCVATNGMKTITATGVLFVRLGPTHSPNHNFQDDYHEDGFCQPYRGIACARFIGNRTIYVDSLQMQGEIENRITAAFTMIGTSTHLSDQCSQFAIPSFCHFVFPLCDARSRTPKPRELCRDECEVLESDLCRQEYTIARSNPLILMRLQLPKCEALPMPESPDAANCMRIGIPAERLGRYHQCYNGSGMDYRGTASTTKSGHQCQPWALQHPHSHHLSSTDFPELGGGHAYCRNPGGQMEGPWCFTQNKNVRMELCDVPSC

B1: chimeric rabbit/human Fab ERR2-302 (Fab, V domains shown)
VH: QKQLVESGGGLVKPGGSLTLTCTVSGFSLSSYAIGWVRQAPGNGLEWIGIINSYGSTYYASWAKSRSTITRNTNLNTVTLKMTSLTAADTATYFCARSPYGYVSAWGYHRLDLWGQGTLVTISS
VL: SYELTQLPSVSVSLGQTARITCGGASIGSKVVHWYQQKPGLAPGLLIYDDDERPSGVPDRFSGSNSGDTATLTISGAQAGDEAEYYCQLWDGSDVVFGGGTQLTVTG
B1: the Kd came out at 52.5 nM, the off-rate constant (koff) was found to be 0.00544 s⁻¹ and the kon was determined as 104000 M⁻¹ s⁻¹.

B2: chimeric rabbit/human Fab ERR2-308 (Fab, V domains shown)
VH: QEQLEESGGRLVTPGTPLTLTCAVSGFSLSNYAMGWVRQAPGEGLEYIGWISAGGGAYYASWVNGRFTISKTSSTVDLKMTSLTAADTATYFCARGASNGCDLWGPGTLVTVSS
VL: DPMLTQTPSSVSAVVGGTVTIKCQASQSITSWLSWYQQKPGQPPKLLIYGASHLASGVPSRFKGSGYGTEFTLTISGIQREDAATYYCLGGYSNSDIVFGGGTELEIL
For B2, the koff was 0.000286 s⁻¹ and the kon amounted to 27100 M⁻¹ s⁻¹.

B3: chimeric rabbit/human Fab XBR2-327 (Fab, V domains shown)
VH: QEQLKESGGGLFKPTDTLTLTCTVSGFSLSSGAISWVRQAPGNGLEYIGFVNSLGNTYYANWAKSRSAITRNTNENTVTLKMTSLAAADTATYFCAKDYGNWAFDPWGPGTLVTVSS
VL: DPVLTQTPSSVSAAVGGTVAINCQASQSISSYLSWYQQKPGQPPKLLIYGASKLASGVPSRFSGSGSGTEYTLTISGVQREDAATYYCLGGYASASYRTAFGGGTKLEIK
On to B3, for which the Kd came to 57.2 nM, the off-rate constant (koff) came to 0.00546 s⁻¹ and the kon was 95600 M⁻¹ s⁻¹.

B4: chimeric rabbit/human Fab ERR2-317 (Fab, V domains shown)
VH: QSLEESGGRLVTPGTPLTLTCTASGFSLSSYDMIWVRQAPGKGLEYIGIINAGGNTYYASWAKGRFTISRTSTTVDLKMTSPTTEDTATYFCARGSSWTGDIWGPGTLVTVSS
VL: DPVLTQTPSSTSAAVGGTVTIKCQASQSISSYLSWYQQKPGQPPKQLIYAASTLASGVPSRFKGSGSGTEYTLTISGVQREDAATYYCLGGYASASYQTAFGGGTKVEIK
B4: the koff stood at 0.0132 s⁻¹ and the kon was 83500 M⁻¹ s⁻¹.

B5: chimeric rabbit/human Fab XBR2-433 (Fab, V domains shown)
VH: QSVKESEGGLFKPTDTLTLTCTVSGFSLSTYGVSWVRQAPGNGLEWIGAIGSSGSANYASWAKDRSTITRNTNLNTVTLKMTSLTAADTATYFCARDGYYSSGWGPYFNIWGPGTLVTISS
VL: SFVLTQPASVQVNLGQTVSLTCTADTLSRSYASWYQQKPGQAPVLLIYRDTSRPSGVPDRFSGSSSGNTATLTISGAQAGDEADYYCATSGGSGSNPQYVFGGGTQLTVTG
Turning to B5, the Kd stood at 2280 nM, the koff is 0.108 s⁻¹ and the kon is 47300 M⁻¹ s⁻¹.

B6: chimeric rabbit/human Fab ERR2-TOP35 (Fab, V domains shown)
VH: QSVKESEGGLFKPMDTLTLTCTVSGFSLNTYGVSWVRQAPGNGLEWIGAVGSSGATNYASWAKSRSTITRNTNENTVTLKMTSLTAADTATYFCARDGYYSSGWGPYFSIWGPGTLVTVSS
VL: SFVLTQPASVQVNLGQTVSLTCTAETLRSSYASWYQQKPGQAPVLLIYRDTSRPSGVPDRFSGSSSGNTATLTISGAQAGDEADYYCATSDGSGSRYYVFGGGTQLTVTG
B6: the Kd stood at 43.3 nM, the koff stood at 0.00851 s⁻¹ and the kon was 197000 M⁻¹ s⁻¹.

B7: chimeric rabbit/human Fab XBR2-416 (Fab, V domains shown)
VH: QEQLEESGGRLVTPGTPLTLTCTVSGFSLSSYWMSWVRQAPGKGLEWIGTITPGGNTDYATWAKARFTVSKTSTTVDLKITSPTTEDTATYFCARGIGGAADLWGPGTLVTISS
VL: AQVLTQTPSSTSAAVGGTVTIKCQASQSISSSDLSWYQQKPGQPPKLLIYATSYLASGVPSRFKGSGSGTEYTLTISGVQREDAATYYCLGGYPNTSYRSAFGGGTKVEIK
In the case of B7, the koff came to 0.0173 s⁻¹ and the on-rate constant (kon) came out at 49800 M⁻¹ s⁻¹.

B8: chimeric rabbit/human Fab XBR2-TOP72 (Fab, V domains shown)
VH: QEQLEESGGRLVTPGTPLTLTCTVSGIDLSSNAMSWVRQAPGKGLEYVGFINGGGGVHYASWARGRFTISKTSTTVDLKITSPTTEDTATYFCARAGTTYYTSFNLWGPGTLVTISS
VL: QFVLTQSPSASAALGSSAKLTCTLSSAHKTYTIAWYQQQQGEAPRLLMMLRTDGSYTKGTGVPDRFSGSSSGADRYLIISSVQADDAAGYYCGADYSGGYVFGGGTQLTVTG
B8: the Kd was 4150 nM, the koff is 0.154 s⁻¹ and the kon was determined as 37000 M⁻¹ s⁻¹.

B9: chimeric rabbit/human Fab XBR2-TOP9 (Fab, V domains shown)
VH: QSVEESRGRLVTPGTPLTLICTVSGIDLSSYNIQWVRQAPGKGLEYIGYINTDGSAYYASWAKGRFTISKTSTTVDLKITSPTTEDTATYFCARGGYASGFNLWGPGTLVTISS
VL: DVVMTQTPSSTSAAVGGTVTIKCQASQNIGPWLSWYQQKPGQPPKQLIYAASTLASGVPSRFKGSGSGTDYTLTISGVQREDAATYYCLGWHSWSDDGWAFGAGTNVEIK
For B9, the koff amounted to 0.0467 s⁻¹ and the kon worked out at 328000 M⁻¹ s⁻¹.

B10: chimeric rabbit/human Fab ERR2-316 (Fab, V domains shown)
VH: QKQLVESGGRLVTPGGSLTLTCTVSGFSLSKYGVSWVRQAPGSGLEYIGTIGGSGTSYYASWAKSRSTITRNTNLNTVTLKMTSLTAADTATYFCARYFGWNTGFDIWGPGTLVTISS
VL: DPVMTQTPSSVSEPVGGTVTIKCQASQSISNALAWYQQKPGQPPKRLIYKASTPASGVPSRFKGSRSGTEYTLTISGVQREDAATYYCLGFSVVSNDGWAFGAGTNVEIK
B10: the koff stood at 0.0178 s⁻¹ and the on-rate constant (kon) stood at 3.34e+06 M⁻¹ s⁻¹.

B11: chimeric rabbit/human Fab ERR2-TOP2 (Fab, V domains shown)
VH: QSLEESGGRLVTPGTPLTLTCTVSGFSLSSYAISWVRQAPGKGLEWIGTIGTRGDTAYANWAKGRFTISKTSTTVTLKMTSPTTEDTATYFCARELVAGGGSDLWGPGTLVTVSS
VL: DVVMTQTPSSVSAVVGGTVTIKCQASQSITSWLSWYQQKPGQPPKLLIYGASHLASGVPSRFKGSGYGTEFTLTISGIQREDAATYYCLGGYLSASYQTAFGGGTKVEIK
Regarding B11, the koff was 0.00242 s⁻¹ and the kon worked out at 29800 M⁻¹ s⁻¹.

As a reminder, the Kd is a measure of binding affinity in units of concentration. By koff is commonly meant the first-order rate constant of dissociation. Broadly, the kon is the second-order rate constant of association.

(Values after US20190031754A1.)
